Substrate: Nc1ncnc2c1ncn2[C@@H]1O[C@H](COP(=O)(O)OP(=O)(O)OP(=O)(O)O)[C@@H](O)[C@H]1O
Test: Michaelis–Menten saturation kinetics
Format: biochemical, Homo sapiens
Conditions: Mn2+ ATP-binding pocket

B1: Focal adhesion kinase (FAK) (Homo sapiens) (protein)
chain: ETDDYAEIIDEEDTYTMPSTRDYEIQRERIELGRCIGEGQFGDVHQGIYMSPENPALAVAIKTCKNCTSDSVREKFLQEALTMRQFDHPHIVKLIGVITENPVWIIMELCTLGELRSFLQVRKYSLDLASLILYAYQLSTALAYLESKRFVHRDIAARNVLVSSNDCVKLGDFGLSRYMEDSTYYKASKGKLPIKWMAPESINFRRFTSASDVWMFGVCMWEILMHGVKPFQGVKNNDVIGRIENGERLPMPPNCPPTLYSLMTKCWAYDPSRRPRFTELKAQLSTILEEEKAQQEERMRMESRRQ
Km: 6.4 ± 1.2 µM

Source: article PMC7955952
